From patent publication US20160109449A1 (JULIUS MAXIMILIANS UNIVERSITAET WUERZBURG, published 2016)

How the values were obtained:
[1] = molecular target: IsaA oligopeptide SEQ ID NO: 10 (Staphylococcus aureus); assay: peptide array on glass slide, fluorescent secondary antibody
[2] = molecular target: IsaA oligopeptide SEQ ID NO: 11 (Staphylococcus aureus); assay: as above
[3] = molecular target: IsaA oligopeptide SEQ ID NO: 12 (Staphylococcus aureus); assay: as above
[4] = molecular target: IsaA oligopeptide SEQ ID NO: 15 (Staphylococcus aureus); assay: as above
[5] = molecular target: IsaA oligopeptide SEQ ID NO: 17 (Staphylococcus aureus); assay: as above
[6] = molecular target: IsaA oligopeptide SEQ ID NO: 18 (Staphylococcus aureus); assay: as above
[7] = molecular target: IsaA oligopeptide SEQ ID NO: 19 (Staphylococcus aureus); assay: as above
[8] = molecular target: IsaA oligopeptide SEQ ID NO: 20 (Staphylococcus aureus); assay: as above
[9] = molecular target: IsaA oligopeptide SEQ ID NO: 21 (Staphylococcus aureus); assay: as above
[10] = molecular target: IsaA oligopeptide SEQ ID NO: 22 (Staphylococcus aureus); assay: as above
[11] = molecular target: IsaA oligopeptide SEQ ID NO: 23 (Staphylococcus aureus); assay: as above
[12] = molecular target: IsaA oligopeptide SEQ ID NO: 24 (Staphylococcus aureus); assay: as above
[13] = molecular target: IsaA oligopeptide SEQ ID NO: 25 (Staphylococcus aureus); assay: as above
[14] = molecular target: IsaA oligopeptide SEQ ID NO: 26 (Staphylococcus aureus); assay: as above
[15] = molecular target: IsaA oligopeptide SEQ ID NO: 27 (Staphylococcus aureus); assay: as above
[16] = molecular target: IsaA oligopeptide SEQ ID NO: 32 (Staphylococcus aureus); assay: as above
[17] = molecular target: IsaA oligopeptide SEQ ID NO: 34 (Staphylococcus aureus); assay: as above
[18] = molecular target: IsaA oligopeptide SEQ ID NO: 35 (Staphylococcus aureus); assay: as above
[19] = molecular target: IsaA oligopeptide SEQ ID NO: 37 (Staphylococcus aureus); assay: as above
[20] = molecular target: IsaA oligopeptide SEQ ID NO: 38 (Staphylococcus aureus); assay: as above
[21] = molecular target: IsaA oligopeptide SEQ ID NO: 39 (Staphylococcus aureus); assay: as above
[22] = molecular target: IsaA oligopeptide SEQ ID NO: 41 (Staphylococcus aureus); assay: as above
[23] = molecular target: IsaA oligopeptide SEQ ID NO: 43 (Staphylococcus aureus); assay: as above
[24] = molecular target: IsaA oligopeptide SEQ ID NO: 45 (Staphylococcus aureus); assay: as above
[25] = molecular target: IsaA oligopeptide SEQ ID NO: 46 (Staphylococcus aureus); assay: as above
[26] = molecular target: IsaA oligopeptide SEQ ID NO: 47 (Staphylococcus aureus); assay: as above
[27] = molecular target: IsaA oligopeptide SEQ ID NO: 49 (Staphylococcus aureus); assay: as above
[28] = molecular target: IsaA oligopeptide SEQ ID NO: 50 (Staphylococcus aureus); assay: as above
[29] = molecular target: IsaA oligopeptide SEQ ID NO: 52 (Staphylococcus aureus); assay: as above
[30] = molecular target: IsaA oligopeptide SEQ ID NO: 53 (Staphylococcus aureus); assay: as above
[31] = molecular target: IsaA oligopeptide SEQ ID NO: 55 (Staphylococcus aureus); assay: as above
[32] = molecular target: IsaA oligopeptide SEQ ID NO: 57 (Staphylococcus aureus); assay: as above
[33] = molecular target: IsaA oligopeptide SEQ ID NO: 58 (Staphylococcus aureus); assay: as above
[34] = molecular target: IsaA oligopeptide SEQ ID NO: 59 (Staphylococcus aureus); assay: as above
[35] = molecular target: IsaA oligopeptide SEQ ID NO: 61 (Staphylococcus aureus); assay: as above
[36] = molecular target: IsaA oligopeptide SEQ ID NO: 62 (Staphylococcus aureus); assay: as above
[37] = molecular target: IsaA oligopeptide SEQ ID NO: 63 (Staphylococcus aureus); assay: as above
[38] = molecular target: IsaA oligopeptide SEQ ID NO: 64 (Staphylococcus aureus); assay: as above
[39] = molecular target: IsaA oligopeptide SEQ ID NO: 9 (Staphylococcus aureus); assay: as above
[40] = molecular target: T1, recombinant IsaA protein of Staphylococcus aureus (29 kDa immunodominant antigen IsaA) (Staphylococcus aureus, UniProt Q2FV52 30-233, limits assumed); assay: SPR (BIACORE 2000), biotinylated IsaA on streptavidin chip, antibody as analyte
T1 construct: Coated as rIsaA in the ELISA; In the first SPR experiment it was N-biotinylated with sulfo-NHS-LC-biotin (mostly at a single site) and immobilised on streptavidin; In the second SPR experiment it was the analyte in solution; also called rIsaA; 29 kDa IsaA antigen
T1 sequence (looked up): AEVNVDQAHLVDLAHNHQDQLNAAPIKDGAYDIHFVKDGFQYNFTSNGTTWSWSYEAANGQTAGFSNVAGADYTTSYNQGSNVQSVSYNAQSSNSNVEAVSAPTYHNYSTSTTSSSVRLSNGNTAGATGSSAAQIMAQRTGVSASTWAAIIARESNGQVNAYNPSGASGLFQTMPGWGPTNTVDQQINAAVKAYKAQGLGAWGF
Description: The amount of the immobilized antigen corresponds to about 100 resonance units [RU] measured by means of the BIACORE®2000 system.
Interaction analyses were performed using HBS150 buffer (10 mM HEPES pH7.4, 150 mM NaCl, 3.4 mM EDTA). Sensorgrams were recorded at a flow rate of 10 μl/min at 25° C. The association and dissociation time was set to 10 min. The chips were regenerated after each cycle with different regeneration solutions (A: 1 mM CH₃COOH, 1 M NaCl, pH 3; B: 4 M MgCl₂; C: 1 mM CH₃COOH, 1 M NaCl, 6 M Urea, pH 3) for 2 min.

What does the source list for “control antibodies (peptide array) (antibody)”?
Binding (fluorescence intensity) [1]: 160; Binding (fluorescence intensity) [2]: -11; Binding (fluorescence intensity) [3]: -22; Binding (fluorescence intensity) [4]: 107; Binding (fluorescence intensity) [5]: 48; Binding (fluorescence intensity) [6]: -119; Binding (fluorescence intensity) [7]: 83.7; Binding (fluorescence intensity) [8]: 106; Binding (fluorescence intensity) [9]: 182; Binding (fluorescence intensity) [10]: 26.3; Binding (fluorescence intensity) [11]: 367; Binding (fluorescence intensity) [12]: 79.3; Binding (fluorescence intensity) [13]: -61.7; Binding (fluorescence intensity) [14]: 261; Binding (fluorescence intensity) [15]: 81; Binding (fluorescence intensity) [16]: 98.3; Binding (fluorescence intensity) [17]: 98.7; Binding (fluorescence intensity) [18]: 110; Binding (fluorescence intensity) [19]: -27.3; Binding (fluorescence intensity) [20]: 97.7; Binding (fluorescence intensity) [21]: 109; Binding (fluorescence intensity) [22]: 29.3; Binding (fluorescence intensity) [23]: 44.3; Binding (fluorescence intensity) [24]: -4.3; Binding (fluorescence intensity) [25]: -24.3; Binding (fluorescence intensity) [26]: 14.7; Binding (fluorescence intensity) [27]: 40; Binding (fluorescence intensity) [28]: -49.7; Binding (fluorescence intensity) [29]: -60; Binding (fluorescence intensity) [30]: 70.3; Binding (fluorescence intensity) [31]: 36; Binding (fluorescence intensity) [32]: 313; Binding (fluorescence intensity) [33]: 46.3; Binding (fluorescence intensity) [34]: 132; Binding (fluorescence intensity) [35]: 30.3; Binding (fluorescence intensity) [36]: 6.3; Binding (fluorescence intensity) [37]: 57.7; Binding (fluorescence intensity) [38]: 42; Binding (fluorescence intensity) [39]: 70

B1: monoclonal antibody MAB-UK-66 secreted by hybridoma cell line DSM ACC2987 (antibody, V domains shown)
VH: DVKLVESGGGLVKLGGSLKLSCSASGFTFSNYYMSWVRQTPEKRLELVADINGNGGSTYYPDTVKGRFTISRDNAKNTLYLQMSSLKSEDTALYYCVRRGGYYALDYWGQGTTVTVSS
VL: DVVMTQTPLSLPVSLGDQASISCRSSQSLVHINGNTYLHWYLQKPGQSPKLLIYRVSNRFSGVPDRFSGSGSGTDFTLKISRVEAEDLGVYFCSQSTHVPWTFGGGTKLELKR
notes: Monoclonal mouse antibody from a hybridoma; Detected with anti-mouse IgG; also called antibodies secreted by cell line DSM ACC2987; anti-IsaA MAB
Which koff [40] does the source give for B1 here?
Its koff is less than 1e-05 s⁻¹.
